Reference: patent US20250368745A1 (published 2025)

T1: human IL-18BP (human, UniProt O95998 31-194)
T1 construct: UniProt printed as 095998; also called hIL-18BP
T1 sequence: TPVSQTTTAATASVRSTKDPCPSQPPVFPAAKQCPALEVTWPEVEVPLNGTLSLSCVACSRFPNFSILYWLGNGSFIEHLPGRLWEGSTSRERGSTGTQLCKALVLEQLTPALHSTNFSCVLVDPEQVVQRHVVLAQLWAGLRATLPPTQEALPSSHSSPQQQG


Molecular target: T1, human IL-18BP
Assay: BLI, apparent KD

| Binder | Kd [nM] |
| --- | --- |
| SA301a HC-N58M (antibody, name in Kabat numbering, V domains shown, IgG1 kappa) VH: QVQLQESGPGLVKPSQTLSLTCTVSGYSITSDYNSHWIRQPPGKGLEWIGYIHYSGSTMYNPSLKSRVTISRDTSKNQFSLKLSSVTAADTAVYYCARNYGSIYVNYFDYWGQGTLVTVSS VL: EIVLTQSPATLSLSPGERATLSCSASSSVSYMYWYQQKPGQAPRPLIYRTSNLASGIPARFSGSGSGTDFTLTISSLEPEDFAVYYCQQYHSYPTFGGGTKVEIK | 0.23 |
| SA301a HC-N58P (antibody, name in Kabat numbering, V domains shown, IgG1 kappa) VH: QVQLQESGPGLVKPSQTLSLTCTVSGYSITSDYNSHWIRQPPGKGLEWIGYIHYSGSTPYNPSLKSRVTISRDTSKNQFSLKLSSVTAADTAVYYCARNYGSIYVNYFDYWGQGTLVTVSS VL: EIVLTQSPATLSLSPGERATLSCSASSSVSYMYWYQQKPGQAPRPLIYRTSNLASGIPARFSGSGSGTDFTLTISSLEPEDFAVYYCQQYHSYPTFGGGTKVEIK | 0.41 |
| SA301a HC-N58Q (antibody, name in Kabat numbering, V domains shown, IgG1 kappa) VH: QVQLQESGPGLVKPSQTLSLTCTVSGYSITSDYNSHWIRQPPGKGLEWIGYIHYSGSTQYNPSLKSRVTISRDTSKNQFSLKLSSVTAADTAVYYCARNYGSIYVNYFDYWGQGTLVTVSS VL: EIVLTQSPATLSLSPGERATLSCSASSSVSYMYWYQQKPGQAPRPLIYRTSNLASGIPARFSGSGSGTDFTLTISSLEPEDFAVYYCQQYHSYPTFGGGTKVEIK | 0.62 |
| SA301a HC-N58R (antibody, name in Kabat numbering, V domains shown, IgG1 kappa) VH: QVQLQESGPGLVKPSQTLSLTCTVSGYSITSDYNSHWIRQPPGKGLEWIGYIHYSGSTRYNPSLKSRVTISRDTSKNQFSLKLSSVTAADTAVYYCARNYGSIYVNYFDYWGQGTLVTVSS VL: EIVLTQSPATLSLSPGERATLSCSASSSVSYMYWYQQKPGQAPRPLIYRTSNLASGIPARFSGSGSGTDFTLTISSLEPEDFAVYYCQQYHSYPTFGGGTKVEIK | 0.46 |
| SA301a HC-N58S (antibody, name in Kabat numbering, V domains shown, IgG1 kappa) VH: QVQLQESGPGLVKPSQTLSLTCTVSGYSITSDYNSHWIRQPPGKGLEWIGYIHYSGSTSYNPSLKSRVTISRDTSKNQFSLKLSSVTAADTAVYYCARNYGSIYVNYFDYWGQGTLVTVSS VL: EIVLTQSPATLSLSPGERATLSCSASSSVSYMYWYQQKPGQAPRPLIYRTSNLASGIPARFSGSGSGTDFTLTISSLEPEDFAVYYCQQYHSYPTFGGGTKVEIK | 1.37 |
| SA301a HC-N58T (antibody, name in Kabat numbering, V domains shown, IgG1 kappa) VH: QVQLQESGPGLVKPSQTLSLTCTVSGYSITSDYNSHWIRQPPGKGLEWIGYIHYSGSTTYNPSLKSRVTISRDTSKNQFSLKLSSVTAADTAVYYCARNYGSIYVNYFDYWGQGTLVTVSS VL: EIVLTQSPATLSLSPGERATLSCSASSSVSYMYWYQQKPGQAPRPLIYRTSNLASGIPARFSGSGSGTDFTLTISSLEPEDFAVYYCQQYHSYPTFGGGTKVEIK | 0.47 |
| SA301a HC-N58V (antibody, name in Kabat numbering, V domains shown, IgG1 kappa) VH: QVQLQESGPGLVKPSQTLSLTCTVSGYSITSDYNSHWIRQPPGKGLEWIGYIHYSGSTVYNPSLKSRVTISRDTSKNQFSLKLSSVTAADTAVYYCARNYGSIYVNYFDYWGQGTLVTVSS VL: EIVLTQSPATLSLSPGERATLSCSASSSVSYMYWYQQKPGQAPRPLIYRTSNLASGIPARFSGSGSGTDFTLTISSLEPEDFAVYYCQQYHSYPTFGGGTKVEIK | 0.44 |
| SA301a HC-N58Y (antibody, name in Kabat numbering, V domains shown, IgG1 kappa) VH: QVQLQESGPGLVKPSQTLSLTCTVSGYSITSDYNSHWIRQPPGKGLEWIGYIHYSGSTYYNPSLKSRVTISRDTSKNQFSLKLSSVTAADTAVYYCARNYGSIYVNYFDYWGQGTLVTVSS VL: EIVLTQSPATLSLSPGERATLSCSASSSVSYMYWYQQKPGQAPRPLIYRTSNLASGIPARFSGSGSGTDFTLTISSLEPEDFAVYYCQQYHSYPTFGGGTKVEIK | 0.41 |
| SA301a HC-S54A (antibody, name in Kabat numbering, V domains shown, IgG1 kappa) VH: QVQLQESGPGLVKPSQTLSLTCTVSGYSITSDYNSHWIRQPPGKGLEWIGYIHYAGSTNYNPSLKSRVTISRDTSKNQFSLKLSSVTAADTAVYYCARNYGSIYVNYFDYWGQGTLVTVSS VL: EIVLTQSPATLSLSPGERATLSCSASSSVSYMYWYQQKPGQAPRPLIYRTSNLASGIPARFSGSGSGTDFTLTISSLEPEDFAVYYCQQYHSYPTFGGGTKVEIK | 0.11 |
| SA301a HC-S54D (antibody, name in Kabat numbering, V domains shown, IgG1 kappa) VH: QVQLQESGPGLVKPSQTLSLTCTVSGYSITSDYNSHWIRQPPGKGLEWIGYIHYDGSTNYNPSLKSRVTISRDTSKNQFSLKLSSVTAADTAVYYCARNYGSIYVNYFDYWGQGTLVTVSS VL: EIVLTQSPATLSLSPGERATLSCSASSSVSYMYWYQQKPGQAPRPLIYRTSNLASGIPARFSGSGSGTDFTLTISSLEPEDFAVYYCQQYHSYPTFGGGTKVEIK | 0.22 |
| SA301a HC-S54F (antibody, name in Kabat numbering, V domains shown, IgG1 kappa) VH: QVQLQESGPGLVKPSQTLSLTCTVSGYSITSDYNSHWIRQPPGKGLEWIGYIHYFGSTNYNPSLKSRVTISRDTSKNQFSLKLSSVTAADTAVYYCARNYGSIYVNYFDYWGQGTLVTVSS VL: EIVLTQSPATLSLSPGERATLSCSASSSVSYMYWYQQKPGQAPRPLIYRTSNLASGIPARFSGSGSGTDFTLTISSLEPEDFAVYYCQQYHSYPTFGGGTKVEIK | 0.56 |
| SA301a HC-S56A (antibody, name in Kabat numbering, V domains shown, IgG1 kappa) VH: QVQLQESGPGLVKPSQTLSLTCTVSGYSITSDYNSHWIRQPPGKGLEWIGYIHYSGATNYNPSLKSRVTISRDTSKNQFSLKLSSVTAADTAVYYCARNYGSIYVNYFDYWGQGTLVTVSS VL: EIVLTQSPATLSLSPGERATLSCSASSSVSYMYWYQQKPGQAPRPLIYRTSNLASGIPARFSGSGSGTDFTLTISSLEPEDFAVYYCQQYHSYPTFGGGTKVEIK | 0.2 |
| SA301a HC-S56D (antibody, name in Kabat numbering, V domains shown, IgG1 kappa) VH: QVQLQESGPGLVKPSQTLSLTCTVSGYSITSDYNSHWIRQPPGKGLEWIGYIHYSGDTNYNPSLKSRVTISRDTSKNQFSLKLSSVTAADTAVYYCARNYGSIYVNYFDYWGQGTLVTVSS VL: EIVLTQSPATLSLSPGERATLSCSASSSVSYMYWYQQKPGQAPRPLIYRTSNLASGIPARFSGSGSGTDFTLTISSLEPEDFAVYYCQQYHSYPTFGGGTKVEIK | 0.62 |
| SA301a HC-S56E (antibody, name in Kabat numbering, V domains shown, IgG1 kappa) VH: QVQLQESGPGLVKPSQTLSLTCTVSGYSITSDYNSHWIRQPPGKGLEWIGYIHYSGETNYNPSLKSRVTISRDTSKNQFSLKLSSVTAADTAVYYCARNYGSIYVNYFDYWGQGTLVTVSS VL: EIVLTQSPATLSLSPGERATLSCSASSSVSYMYWYQQKPGQAPRPLIYRTSNLASGIPARFSGSGSGTDFTLTISSLEPEDFAVYYCQQYHSYPTFGGGTKVEIK | 0.48 |
| SA301a HC-S56F (antibody, name in Kabat numbering, V domains shown, IgG1 kappa) VH: QVQLQESGPGLVKPSQTLSLTCTVSGYSITSDYNSHWIRQPPGKGLEWIGYIHYSGFTNYNPSLKSRVTISRDTSKNQFSLKLSSVTAADTAVYYCARNYGSIYVNYFDYWGQGTLVTVSS VL: EIVLTQSPATLSLSPGERATLSCSASSSVSYMYWYQQKPGQAPRPLIYRTSNLASGIPARFSGSGSGTDFTLTISSLEPEDFAVYYCQQYHSYPTFGGGTKVEIK | 0.7 |
| SA301a HC-S56G (antibody, name in Kabat numbering, V domains shown, IgG1 kappa) VH: QVQLQESGPGLVKPSQTLSLTCTVSGYSITSDYNSHWIRQPPGKGLEWIGYIHYSGGTNYNPSLKSRVTISRDTSKNQFSLKLSSVTAADTAVYYCARNYGSIYVNYFDYWGQGTLVTVSS VL: EIVLTQSPATLSLSPGERATLSCSASSSVSYMYWYQQKPGQAPRPLIYRTSNLASGIPARFSGSGSGTDFTLTISSLEPEDFAVYYCQQYHSYPTFGGGTKVEIK | 0.46 |
| SA301a HC-S56H (antibody, name in Kabat numbering, V domains shown, IgG1 kappa) VH: QVQLQESGPGLVKPSQTLSLTCTVSGYSITSDYNSHWIRQPPGKGLEWIGYIHYSGHTNYNPSLKSRVTISRDTSKNQFSLKLSSVTAADTAVYYCARNYGSIYVNYFDYWGQGTLVTVSS VL: EIVLTQSPATLSLSPGERATLSCSASSSVSYMYWYQQKPGQAPRPLIYRTSNLASGIPARFSGSGSGTDFTLTISSLEPEDFAVYYCQQYHSYPTFGGGTKVEIK | 0.55 |
| SA301a HC-S56I (antibody, name in Kabat numbering, V domains shown, IgG1 kappa) VH: QVQLQESGPGLVKPSQTLSLTCTVSGYSITSDYNSHWIRQPPGKGLEWIGYIHYSGITNYNPSLKSRVTISRDTSKNQFSLKLSSVTAADTAVYYCARNYGSIYVNYFDYWGQGTLVTVSS VL: EIVLTQSPATLSLSPGERATLSCSASSSVSYMYWYQQKPGQAPRPLIYRTSNLASGIPARFSGSGSGTDFTLTISSLEPEDFAVYYCQQYHSYPTFGGGTKVEIK | 0.48 |
| SA301a HC-S56K (antibody, name in Kabat numbering, V domains shown, IgG1 kappa) VH: QVQLQESGPGLVKPSQTLSLTCTVSGYSITSDYNSHWIRQPPGKGLEWIGYIHYSGKTNYNPSLKSRVTISRDTSKNQFSLKLSSVTAADTAVYYCARNYGSIYVNYFDYWGQGTLVTVSS VL: EIVLTQSPATLSLSPGERATLSCSASSSVSYMYWYQQKPGQAPRPLIYRTSNLASGIPARFSGSGSGTDFTLTISSLEPEDFAVYYCQQYHSYPTFGGGTKVEIK | 0.64 |
| SA301a HC-S56L (antibody, name in Kabat numbering, V domains shown, IgG1 kappa) VH: QVQLQESGPGLVKPSQTLSLTCTVSGYSITSDYNSHWIRQPPGKGLEWIGYIHYSGLTNYNPSLKSRVTISRDTSKNQFSLKLSSVTAADTAVYYCARNYGSIYVNYFDYWGQGTLVTVSS VL: EIVLTQSPATLSLSPGERATLSCSASSSVSYMYWYQQKPGQAPRPLIYRTSNLASGIPARFSGSGSGTDFTLTISSLEPEDFAVYYCQQYHSYPTFGGGTKVEIK | 0.36 |
| SA301a HC-S56M (antibody, name in Kabat numbering, V domains shown, IgG1 kappa) VH: QVQLQESGPGLVKPSQTLSLTCTVSGYSITSDYNSHWIRQPPGKGLEWIGYIHYSGMTNYNPSLKSRVTISRDTSKNQFSLKLSSVTAADTAVYYCARNYGSIYVNYFDYWGQGTLVTVSS VL: EIVLTQSPATLSLSPGERATLSCSASSSVSYMYWYQQKPGQAPRPLIYRTSNLASGIPARFSGSGSGTDFTLTISSLEPEDFAVYYCQQYHSYPTFGGGTKVEIK | 0.46 |
| SA301a HC-S56P (antibody, name in Kabat numbering, V domains shown, IgG1 kappa) VH: QVQLQESGPGLVKPSQTLSLTCTVSGYSITSDYNSHWIRQPPGKGLEWIGYIHYSGPTNYNPSLKSRVTISRDTSKNQFSLKLSSVTAADTAVYYCARNYGSIYVNYFDYWGQGTLVTVSS VL: EIVLTQSPATLSLSPGERATLSCSASSSVSYMYWYQQKPGQAPRPLIYRTSNLASGIPARFSGSGSGTDFTLTISSLEPEDFAVYYCQQYHSYPTFGGGTKVEIK | 0.97 |
